Measured values published in patent publication US5639663, “Bifunctional genetic markers” (National Research Council of Canada, dated 1997).

Target: beta-glucuronidase (GUS), unfused, expressed from pGK1 (E. coli, UniProt P05804)
Experiment: molecular sieve chromatography (Superose 6) of E. coli extract co-expressing unfused GUS and NPT-II; enzyme activities of the fractions

B1: neomycin phosphotransferase-II (NPT-II), unfused, expressed from pGS39 (enzyme)
chain: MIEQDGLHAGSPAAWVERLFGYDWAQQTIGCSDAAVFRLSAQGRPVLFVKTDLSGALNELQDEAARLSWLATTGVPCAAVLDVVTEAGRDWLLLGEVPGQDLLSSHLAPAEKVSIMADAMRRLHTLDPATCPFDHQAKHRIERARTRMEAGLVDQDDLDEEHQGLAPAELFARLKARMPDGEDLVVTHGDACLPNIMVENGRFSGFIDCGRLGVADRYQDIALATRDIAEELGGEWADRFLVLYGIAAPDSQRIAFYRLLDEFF
Q: Does B1 bind?
A: no binding
